Results published in patent US20250084155A1 (University of Texas, published 2025).

Experiments:
[1] = target: T1, HSP70 (human HSP70; the antigen of the binning, humanization and variant binding assays) (human, UniProt P0DMV8 1-641, limits assumed); assay: BLI, antibody on sensor
T1 construct: also called hu HSP70
Protocol: Humanized variants were characterized for binding using biolayer interferometry (BLI). Chimeric antibodies including the murine 77A antigen binding region and human Fe regions were also tested. Antibodies and reagents were diluted out onto microwell plates and loaded into the instrument. Diluted antibodies were first immobilized onto dip-and-read sensors, and then measurements for baselines were acquired. Subsequently, the sensors were dipped into wells containing the antigen in solution, or buffer alone. The change in number of molecules bound to the sensor was quantified by measurement of the shift in the interference pattern of light during each step of the protocol. Mathematical modeling was performed based on those values and the concentrations of reagents used in the assay and used to calculate kinetics values.

[2] = target: T1, HSP70 (human HSP70; the antigen of the …); assay: BLI, anti-human Fc capture, steady state
Protocol: (§1) Further kinetics assays were conducted for select antibody variants. Assays were performed as follows. Antibody variants were immobilized using anti-human Fc onto the surface of a series of biosensors. Antigen was passed over the surface to generate a binding response. Binding data for the antibody: antigen interactions were collected at 25° C. on the biosensors. A dilution series of the antigen was used in the association step, in order to fit results globally and get the best values for ka, kd, and KD. The response data for the binding of antigen to the surface immobilized antibody were fitted to a 1:1 binding model.

[3] = target: T1, HSP70 (human HSP70; the antigen of the …); assay: BLI, anti-human Fc capture, antigen 100 nM
Summary of the method: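 Antibody variants captured on anti-human Fc biosensors at […]; antigen at 100 nM flowed over, 25° C. Captured antigen recorded at 610 s (start of dissociation) and 1495 s (end of dissociation), giving % dissociation.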

[4] = target: T1, HSP70 (human HSP70; the antigen of the …); assay: BLI, anti-human Fc capture, antigen dilution series, 1:1 fit
Protocol: as §1

T1 sequence (P0DMV8 whole entry, change not shown): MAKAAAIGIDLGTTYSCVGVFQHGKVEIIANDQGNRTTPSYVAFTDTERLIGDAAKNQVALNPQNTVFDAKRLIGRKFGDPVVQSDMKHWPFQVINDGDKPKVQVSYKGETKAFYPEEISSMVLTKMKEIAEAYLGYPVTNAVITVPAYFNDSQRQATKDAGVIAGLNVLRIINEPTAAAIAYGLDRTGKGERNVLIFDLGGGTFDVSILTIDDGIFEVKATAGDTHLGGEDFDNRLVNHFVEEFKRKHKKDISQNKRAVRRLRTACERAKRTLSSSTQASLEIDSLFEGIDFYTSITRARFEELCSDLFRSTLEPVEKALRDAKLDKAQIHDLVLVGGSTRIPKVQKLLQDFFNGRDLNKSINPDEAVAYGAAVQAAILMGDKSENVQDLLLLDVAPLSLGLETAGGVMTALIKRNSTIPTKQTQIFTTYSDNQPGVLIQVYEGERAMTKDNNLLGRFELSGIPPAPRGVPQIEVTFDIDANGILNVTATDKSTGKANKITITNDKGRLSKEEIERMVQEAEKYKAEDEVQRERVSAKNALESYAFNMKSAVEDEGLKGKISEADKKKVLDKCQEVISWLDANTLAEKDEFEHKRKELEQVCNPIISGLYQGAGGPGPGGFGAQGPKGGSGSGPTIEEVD

Kd [1] [nM] | koff [1] [s⁻¹] | kon [1] [M⁻¹ s⁻¹] | KD Steady State [2] [nM] | % Diss [3] [%] | Kd [4] [nM] | koff [4] [s⁻¹] | kon [4] [M⁻¹ s⁻¹] | Binder
8.96 | 0.000447 | 49900 | – | – | – | – | – | h77A-23 (antibody, V domains shown) VH: QIQLVQSGPEVKKPGESVKVSCKASGYTFTNYGMNWVRQAPGKGLEWMGWINTYTGEPTYADDFKGRVTITRDTSASTAYMELSSLRSEDTAVYFCARYDHAMDYWGQGTSVTVSS VL: DVVMTQSPDSLAVSLGERVTINCKSSQSLLNSGTRKNYLAWYQQKPGQSPKLLIYWTSTRESGVPDRFSGSGSGTDFTLTISSLQAEDVAVYYCKQSYTLYTFGQGTKLEIK
10.8 | 0.000513 | 47600 | – | – | – | – | – | h77A-15 (antibody, V domains shown) VH: QVQLQQSGPEVKKPGASVKISCKTSGYTFTNYGMNWVRQAPGQGLEWMGWINTYTGEPTYADDFKGRVTMTTDTSTSTAYLELTGLMSDDTAVYFCARYDHAMDYWGQGTTVTVSS VL: DIVMTQSPDSLAVSLGERATINCKSSQSLLNSGTRKNYLAWYQQKPGQSPKLLIYWTSTRESGVPDRFSGSGSGTDFTLTISSLQAEDVAVYYCKQSYTLYTFGGGTKLEIK
10.5 | 0.00046 | 44000 | – | – | – | – | – | h77A-16 (antibody, V domains shown) VH: EVQLVESGGGLVKPGGSLRLSCKASGYTFTNYGMNWVRQAPGKGLKWVGWINTYTGEPTYADDFKGRFTFSRDDSKNTLYLQMNSLKTEDTAVYFCARYDHAMDYWGQGTSVTVSS VL: EIVLTQSPDSLAVSLGERATINCKSSQSLLNSGTRKNYLAWYQQKAGQSPKLLIYWTSTRESGVPDRFSGSGSGTDFTLTIDSLQAEDVAVYYCKQSYTLYTFGGGTKVEIK
10 | 0.000446 | 44500 | – | – | – | – | – | h77A-12 (antibody, V domains shown) VH: QVQLQQSGPEVKKPGASVKISCKTSGYTFTNYGMNWVRQAPGQGLEWMGWINTYTGEPTYADDFKGRVTMTTDTSTSTAYLELTGLMSDDTAVYFCARYDHAMDYWGQGTTVTVSS VL: DIVMTQSPDSLSVSLGERATINCKSSQSLLNSGTRKNYLAWYQQKPGQPPRLLIYWTSTRESGVPDRFSGSGSGTDFTLTINTLQAEDVAVYYCKQSYTLYTFGQGTKLEIK
8.85 | 0.000396 | 44700 | – | – | – | – | – | h77A-13 (antibody, V domains shown) VH: QVQLQQSGPEVKKPGASVKISCKTSGYTFTNYGMNWVRQAPGQGLEWMGWINTYTGEPTYADDFKGRVTMTTDTSTSTAYLELTGLMSDDTAVYFCARYDHAMDYWGQGTTVTVSS VL: DVVMTQSPDSLAVSLGERVTINCKSSQSLLNSGTRKNYLAWYQQKPGQSPKLLIYWTSTRESGVPDRFSGSGSGTDFTLTISSLQAEDVAVYYCKQSYTLYTFGQGTKLEIK
8.31 | 0.000302 | 36400 | – | – | – | – | – | h77A-22 (antibody, V domains shown) VH: QIQLVQSGPEVKKPGESVKVSCKASGYTFTNYGMNWVRQAPGKGLEWMGWINTYTGEPTYADDFKGRVTITRDTSASTAYMELSSLRSEDTAVYFCARYDHAMDYWGQGTSVTVSS VL: DIVMTQSPDSLSVSLGERATINCKSSQSLLNSGTRKNYLAWYQQKPGQPPRLLIYWTSTRESGVPDRFSGSGSGTDFTLTINTLQAEDVAVYYCKQSYTLYTFGQGTKLEIK
10.6 | 0.000503 | 47300 | – | – | – | – | – | h77A-25 (antibody, V domains shown) VH: QIQLVQSGPEVKKPGESVKVSCKASGYTFTNYGMNWVRQAPGKGLEWMGWINTYTGEPTYADDFKGRVTITRDTSASTAYMELSSLRSEDTAVYFCARYDHAMDYWGQGTSVTVSS VL: DIVMTQSPDSLAVSLGERATINCKSSQSLLNSGTRKNYLAWYQQKPGQSPKLLIYWTSTRESGVPDRFSGSGSGTDFTLTISSLQAEDVAVYYCKQSYTLYTFGGGTKLEIK
– | – | – | 1.1 | 4.74 | 1.43 | 7.37e-05 | 51700 | h77A-1.12 (antibody, V domains shown, captured by anti-human Fc) VH: QIQLVQSGAEVKKPGASVKVSCKASGYTFTNYGMNWVRQAPGQGLEWMGWINTYTGEPTYADDFKGRFTFTTDTSTSTAYMELRSLRSDDTAVYFCARYDHAMDYWGQGTLVTVSS VL: EIVLTQSPDSLAVSLGERATINCKSSQSLFNSGTRKNYLAWYQQKAGQSPKLLIYWTSTRESGVPDRFSGSGSGTDFTLTIDSLQAEDVAVYYCKQSYTLYTFGGGTKVEIK
9.26 | 0.000294 | 31800 | – | – | – | – | – | h77A-24 (antibody, V domains shown) VH: QIQLVQSGPEVKKPGESVKVSCKASGYTFTNYGMNWVRQAPGKGLEWMGWINTYTGEPTYADDFKGRVTITRDTSASTAYMELSSLRSEDTAVYFCARYDHAMDYWGQGTSVTVSS VL: DIQMTQSPSSLSASVGDRVTITCKSSQSLLNSGTRKNYLAWYQQKPGKVPKLLIYWTSTRESGVPSRFSGSGSGTDFTLTISSLQPEDVATYYCKQSYTLYTFGGGTKLEIK

More lines, now with the values behind:

Binder | Kd [1] [nM] | koff [1] [s⁻¹] | kon [1] [M⁻¹ s⁻¹] | KD Steady State [2] [nM] | % Diss [3] [%] | Kd [4] [nM] | koff [4] [s⁻¹] | kon [4] [M⁻¹ s⁻¹]
chimeric 77A with a human IgG1 Fc domain (antibody, V domains shown, also called Chimera IgG1; IgG1 Chimera) VH: QIQLVQSGPELKKPGETVKISCKASGYTFTNYGMNWVKQAPGKGLKWMGWINTYTGEPTYADDFKGRFAFSLETSATTAYLQINNLKNEDTATYFCARYDHAMDYWGQGTSVTVSS VL: DIVMSQSPSSLAVSAGEKVTMSCKSSQSLLNSGTRKNYLAWYQQKPGQSPKLLIYWTSTRESGVPDRFTGSGSGTDFTLTINSVQAEDLAVYYCKQSYTLYTFGGGTKLEIK | 1.39 | 9.94e-05 | 71600 | – | – | – | – | –
chimeric 77A with a human IgG2 Fc domain (antibody, V domains shown, also called Chimera IgG2; IgG2 Chimera) VH: QIQLVQSGPELKKPGETVKISCKASGYTFTNYGMNWVKQAPGKGLKWMGWINTYTGEPTYADDFKGRFAFSLETSATTAYLQINNLKNEDTATYFCARYDHAMDYWGQGTSVTVSS VL: DIVMSQSPSSLAVSAGEKVTMSCKSSQSLLNSGTRKNYLAWYQQKPGQSPKLLIYWTSTRESGVPDRFTGSGSGTDFTLTINSVQAEDLAVYYCKQSYTLYTFGGGTKLEIK | 1.52 | 0.000112 | 73700 | – | – | – | – | –
chimeric 77A with a human IgG4 Fc domain (antibody, V domains shown, also called Chimera IgG4; IgG4 Chimera) VH: QIQLVQSGPELKKPGETVKISCKASGYTFTNYGMNWVKQAPGKGLKWMGWINTYTGEPTYADDFKGRFAFSLETSATTAYLQINNLKNEDTATYFCARYDHAMDYWGQGTSVTVSS VL: DIVMSQSPSSLAVSAGEKVTMSCKSSQSLLNSGTRKNYLAWYQQKPGQSPKLLIYWTSTRESGVPDRFTGSGSGTDFTLTINSVQAEDLAVYYCKQSYTLYTFGGGTKLEIK | 1.81 | 0.000129 | 71300 | – | – | – | – | –
h77A-1.1 (antibody, V domains shown, captured by anti-human Fc) VH: QIQLVQSGAEVKKPGASVKVSCKASGYTFTKYGMNWVRQAPGQGLEWMGWINTYTGEPTYADDFKGRFTFTTDTSTSTAYMELRSLRSDDTAVYFCARYDHAMDYWGQGTLVTVSS VL: EIVLTQSPDSLAVSLGERATINCKSSQSLLNSGTRKNYLAWYQQKAGQSPKLLIYWTSTRESGVPDRFSGSGSGTDFTLTIDSLQAEDVAVYYCKQSYTLYTFGGGTKVEIK | – | – | – | 0.032 | 3.88 | 0.69 | 6.11e-05 | 88500
h77A-1.8 (antibody, V domains shown, captured by anti-human Fc) VH: QIQLVQSGAEVKKPGASVKVSCKASGYTFTNYGMNWVRQAPGQGLEWMGWINTYTGEPTYADDFKGRFTFTTDTSTSTAYMELRSLRSDDTAVYFCARYDHAMDYWGQGTLVTVSS VL: EIVLTQSPDSLAVSLGERATIKCKSSQSLLNSGTRKNYLAWYQQKAGQSPKLLIYWTSTRESGVPDRFSGSGSGTDFTLTIDSLQAEDVAVYYCKQSYTLYTFGGGTKVEIK | – | – | – | 0.31 | 8.62 | 1.35 | 7.42e-05 | 54800
h77A-1.6 (antibody, V domains shown, captured by anti-human Fc) VH: QIQLVQSGAEVKKPGASVKVSCKASGYTFTNYGMNWVRQAPGQGLEWMGWINTYTGEPTYADDFKGRFTFTTDTSTRTAYMELRSLRSDDTAVYFCARYDHAMDYWGQGTLVTVSS VL: EIVLTQSPDSLAVSLGERATINCKSSQSLLNSGTRKNYLAWYQQKAGQSPKLLIYWTSTRESGVPDRFSGSGSGTDFTLTIDSLQAEDVAVYYCKQSYTLYTFGGGTKVEIK | – | – | – | 1.8 | 6.58 | 2.11 | 0.000114 | 54200
h77A-1.10 (antibody, V domains shown, captured by anti-human Fc) VH: QIQLVQSGDEVKKPGASVKVSCKASGYTFTNYGMNWVRQAPGQGLEWMGWINTYTGEPTYADDFKGRFTFTTDTSTSTAYMELRSLRSDDTAVYFCARYDHAMDYWGQGTLVTVSS VL: EIVLTQSPDSLAVSLGERATINCKSSQSLLNSGTRKNYLAWYQQKAGQSPKLLIYWTSTRESGVPDRFSGSGSGTDFTLTIDSLQAEDVAVYYCKQSYTLYTFGGGTKVEIK | – | – | – | 2.6 | 8.76 | 2.48 | 0.000145 | 58400
